Experimental findings from publication PMC3572051, “The Budding Yeast Cdc48^Shp1 Complex Promotes Cell Cycle Progression by Positive Regulation of Protein Phosphatase 1 (Glc7)” (PLoS ONE, 2013) are described below.

In the experiment the target is T1, Shp1^3HA (S. cerevisiae, UniProt P34223 1-423).
T1 construct: Shp1 (Ubx1), S. cerevisiae; source: S. cerevisiae DF5, chromosomal fusion SHP1^3HA::klTRP1, endogenous expression level, in lysate
T1 sequence (looked up): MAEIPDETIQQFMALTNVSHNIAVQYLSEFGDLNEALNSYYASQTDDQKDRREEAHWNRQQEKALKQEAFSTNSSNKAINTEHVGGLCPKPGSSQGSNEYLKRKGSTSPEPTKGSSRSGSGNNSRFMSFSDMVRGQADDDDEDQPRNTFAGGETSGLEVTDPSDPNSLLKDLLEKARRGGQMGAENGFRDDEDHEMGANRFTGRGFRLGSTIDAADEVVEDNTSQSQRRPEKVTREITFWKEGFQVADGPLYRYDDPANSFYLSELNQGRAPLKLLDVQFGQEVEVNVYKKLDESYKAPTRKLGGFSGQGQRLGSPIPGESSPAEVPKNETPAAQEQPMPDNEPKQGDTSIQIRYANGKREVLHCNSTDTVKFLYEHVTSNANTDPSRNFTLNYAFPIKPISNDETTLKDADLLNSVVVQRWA
In words: co-IP; yeast lysates; immunoprecipitation with pre-coupled anti-HA antibody (overnight, 4°C), IP buffer 50 mM Tris/HCl pH 7.5, 100 mM KCl, 5 mM MgCl2, NP-40, 10% glycerol; Western blot; for Glc8^3HA lysates of asynchronous or α-factor-arrested wild-type and shp1-7 cells. As to conditions: partners not purified. (A western blot detects proteins with antibodies after separation by electrophoresis.)

B1: Glc7^3myc (enzyme, S. cerevisiae, UniProt P32598 1-312, looked up)
chain: MDSQPVDVDNIIDRLLEVRGSKPGQQVDLEENEIRYLCSKARSIFIKQPILLELEAPIKICGDIHGQYYDLLRLFEYGGFPPESNYLFLGDYVDRGKQSLETICLLLAYKIKYPENFFILRGNHECASINRIYGFYDECKRRYNIKLWKTFTDCFNCLPIAAIIDEKIFCMHGGLSPDLNSMEQIRRVMRPTDIPDVGLLCDLLWSDPDKDIVGWSENDRGVSFTFGPDVVNRFLQKQDMELICRAHQVVEDGYEFFSKRQLVTLFSAPNYCGEFDNAGAMMSVDESLLCSFQILKPAQKSLPRQAGGRKKK
notes: Glc7, catalytic subunit of protein phosphatase 1, S. cerevisiae; carboxyl-terminally tagged at its authentic chromosomal locus; also called PP1 catalytic subunit; source: S. cerevisiae DF5, expressed from the chromosomal GLC7 locus as sole source of Glc7, in lysate; not shown: 3myc, C-terminal, kept
Take B1: the “fold difference of the Glc7 signal in the IP lane (relative to the heavy chain signal) against the negative control” value was more than 8 fold.
